Data: patent publication US20260193316A1

How the values were obtained:
Experiment in all cases: cell-based or functional assay
C1C3 (human) = C1C3 (human) (UniProt P11836)
[1] = target: CD20WT (wild type amino acidic sequence of human CD20) (human) (UniProt P11836)
C1C252 (human) = C1C252 (human) (UniProt P11836)

reduction in the hCD20+ cell population in mice (GFP+ T cells in blood) (C1C3 (human)): 65% | reduction in the hCD20+ cell population in mice (GFP+ T cells in blood) [1]: 65% | reduction in the hCD20+ cell population in mice (GFP+ T cells in blood) (C1C252 (human)): 65%
Substance: 2H7 mouse anti-human CD20 antibody
